The text below walks through data of patent US20210238260.

In general, kcat refers to the number of substrate molecules converted per active site and unit of time at saturation.

To fix the notation:
B1: FIXa variant Y155F/I251S/R318Y/R338E/R403E/E410N (protein)
chain 1: YNSGKLEEFVQGNLERECMEEKCSFEEAREVFENTERTTEFWKQYVDGDQCESNPCLNGGSCKDDINSYECWCPFGFEGKNCELDVTCNIKNGRCEQFCKNSADNKVVCSCTEGYRLAENQKSCEPAVPFPCGRVSVSQTSKLTR
chain 2: VVGGEDAKPGQFPWQVVLNGKVDAFCGGSIVNEKWIVTAAHCVETGVKITVVAGEHNIEETEHTEQKRNVSRIIPHHNYNAAINKYNHDIALLELDEPLVLNSYVTPICIADKEYTNIFLKFGSGYVSGWGRVFHKGYSALVLQYLRVPLVDRATCLESTKFTIYNNMFCAGFHEGGRDSCQGDSGGPHVTEVEGTSFLTGIISWGEECAMKGKYGIYTKVSEYVNWIKNKTKLT
B2: FIXa variant Y155F/K247N/N249S/R318Y/R338E/E410N (protein)
chain 1: YNSGKLEEFVQGNLERECMEEKCSFEEAREVFENTERTTEFWKQYVDGDQCESNPCLNGGSCKDDINSYECWCPFGFEGKNCELDVTCNIKNGRCEQFCKNSADNKVVCSCTEGYRLAENQKSCEPAVPFPCGRVSVSQTSKLTR
chain 2: VVGGEDAKPGQFPWQVVLNGKVDAFCGGSIVNEKWIVTAAHCVETGVKITVVAGEHNIEETEHTEQNRSVIRIIPHHNYNAAINKYNHDIALLELDEPLVLNSYVTPICIADKEYTNIFLKFGSGYVSGWGRVFHKGYSALVLQYLRVPLVDRATCLESTKFTIYNNMFCAGFHEGGRDSCQGDSGGPHVTEVEGTSFLTGIISWGEECAMKGKYGIYTKVSRYVNWIKNKTKLT
B3: FIXa-Y155F/R318Y/R338E/T343R/R403E/E410N (protein)
chain 1: YNSGKLEEFVQGNLERECMEEKCSFEEAREVFENTERTTEFWKQYVDGDQCESNPCLNGGSCKDDINSYECWCPFGFEGKNCELDVTCNIKNGRCEQFCKNSADNKVVCSCTEGYRLAENQKSCEPAVPFPCGRVSVSQTSKLTR
chain 2: VVGGEDAKPGQFPWQVVLNGKVDAFCGGSIVNEKWIVTAAHCVETGVKITVVAGEHNIEETEHTEQKRNVIRIIPHHNYNAAINKYNHDIALLELDEPLVLNSYVTPICIADKEYTNIFLKFGSGYVSGWGRVFHKGYSALVLQYLRVPLVDRATCLESTKFRIYNNMFCAGFHEGGRDSCQGDSGGPHVTEVEGTSFLTGIISWGEECAMKGKYGIYTKVSEYVNWIKNKTKLT
B4: FIXa variant K247N/N249S/R318Y/R338E/R403E/E410N (protein)
chain 1: YNSGKLEEFVQGNLERECMEEKCSFEEAREVFENTERTTEFWKQYVDGDQCESNPCLNGGSCKDDINSYECWCPFGFEGKNCELDVTCNIKNGRCEQFCKNSADNKVVCSCTEGYRLAENQKSCEPAVPFPCGRVSVSQTSKLTR
chain 2: VVGGEDAKPGQFPWQVVLNGKVDAFCGGSIVNEKWIVTAAHCVETGVKITVVAGEHNIEETEHTEQNRSVIRIIPHHNYNAAINKYNHDIALLELDEPLVLNSYVTPICIADKEYTNIFLKFGSGYVSGWGRVFHKGYSALVLQYLRVPLVDRATCLESTKFTIYNNMFCAGFHEGGRDSCQGDSGGPHVTEVEGTSFLTGIISWGEECAMKGKYGIYTKVSEYVNWIKNKTKLT
B5: FIXa variant Y155F/K247N/N249S/R318Y/R338E/R403E/E410N (protein)
chain 1: YNSGKLEEFVQGNLERECMEEKCSFEEAREVFENTERTTEFWKQYVDGDQCESNPCLNGGSCKDDINSYECWCPFGFEGKNCELDVTCNIKNGRCEQFCKNSADNKVVCSCTEGYRLAENQKSCEPAVPFPCGRVSVSQTSKLTR
chain 2: VVGGEDAKPGQFPWQVVLNGKVDAFCGGSIVNEKWIVTAAHCVETGVKITVVAGEHNIEETEHTEQNRSVIRIIPHHNYNAAINKYNHDIALLELDEPLVLNSYVTPICIADKEYTNIFLKFGSGYVSGWGRVFHKGYSALVLQYLRVPLVDRATCLESTKFTIYNNMFCAGFHEGGRDSCQGDSGGPHVTEVEGTSFLTGIISWGEECAMKGKYGIYTKVSEYVNWIKNKTKLT
B6: FIXa variant D104N/K106S/K247N/N249S/R318Y/R338E/R403E/E410N (protein)
chain 1: YNSGKLEEFVQGNLERECMEEKCSFEEAREVFENTERTTEFWKQYVDGDQCESNPCLNGGSCKDDINSYECWCPFGFEGKNCELDVTCNIKNGRCEQFCKNSANNSVVCSCTEGYRLAENQKSCEPAVPFPCGRVSVSQTSKLTR
chain 2: VVGGEDAKPGQFPWQVVLNGKVDAFCGGSIVNEKWIVTAAHCVETGVKITVVAGEHNIEETEHTEQNRSVIRIIPHHNYNAAINKYNHDIALLELDEPLVLNSYVTPICIADKEYTNIFLKFGSGYVSGWGRVFHKGYSALVLQYLRVPLVDRATCLESTKFTIYNNMFCAGFHEGGRDSCQGDSGGPHVTEVEGTSFLTGIISWGEECAMKGKYGIYTKVSEYVNWIKNKTKLT
B7: FIXa variant K247N/N249S/R318Y/R338E/E410N (protein)
chain 1: YNSGKLEEFVQGNLERECMEEKCSFEEAREVFENTERTTEFWKQYVDGDQCESNPCLNGGSCKDDINSYECWCPFGFEGKNCELDVTCNIKNGRCEQFCKNSADNKVVCSCTEGYRLAENQKSCEPAVPFPCGRVSVSQTSKLTR
chain 2: VVGGEDAKPGQFPWQVVLNGKVDAFCGGSIVNEKWIVTAAHCVETGVKITVVAGEHNIEETEHTEQNRSVIRIIPHHNYNAAINKYNHDIALLELDEPLVLNSYVTPICIADKEYTNIFLKFGSGYVSGWGRVFHKGYSALVLQYLRVPLVDRATCLESTKFTIYNNMFCAGFHEGGRDSCQGDSGGPHVTEVEGTSFLTGIISWGEECAMKGKYGIYTKVSRYVNWIKNKTKLT
B8: FIXa-D104N/K106S/K228N/K247N/N249S/R318Y/R338E/R403E/E410N (protein)
chain 1: YNSGKLEEFVQGNLERECMEEKCSFEEAREVFENTERTTEFWKQYVDGDQCESNPCLNGGSCKDDINSYECWCPFGFEGKNCELDVTCNIKNGRCEQFCKNSANNSVVCSCTEGYRLAENQKSCEPAVPFPCGRVSVSQTSKLTR
chain 2: VVGGEDAKPGQFPWQVVLNGKVDAFCGGSIVNEKWIVTAAHCVETGVNITVVAGEHNIEETEHTEQNRSVIRIIPHHNYNAAINKYNHDIALLELDEPLVLNSYVTPICIADKEYTNIFLKFGSGYVSGWGRVFHKGYSALVLQYLRVPLVDRATCLESTKFTIYNNMFCAGFHEGGRDSCQGDSGGPHVTEVEGTSFLTGIISWGEECAMKGKYGIYTKVSEYVNWIKNKTKLT
B9: FIXa variant D104N/K106S/Y155F/K247N/N249S/R318Y/R338E/R403E/E410N (protein)
chain 1: YNSGKLEEFVQGNLERECMEEKCSFEEAREVFENTERTTEFWKQYVDGDQCESNPCLNGGSCKDDINSYECWCPFGFEGKNCELDVTCNIKNGRCEQFCKNSANNSVVCSCTEGYRLAENQKSCEPAVPFPCGRVSVSQTSKLTR
chain 2: VVGGEDAKPGQFPWQVVLNGKVDAFCGGSIVNEKWIVTAAHCVETGVKITVVAGEHNIEETEHTEQNRSVIRIIPHHNYNAAINKYNHDIALLELDEPLVLNSYVTPICIADKEYTNIFLKFGSGYVSGWGRVFHKGYSALVLQYLRVPLVDRATCLESTKFTIYNNMFCAGFHEGGRDSCQGDSGGPHVTEVEGTSFLTGIISWGEECAMKGKYGIYTKVSEYVNWIKNKTKLT
B10: FIXa variant I251S/R318Y/R338E/E410N (protein)
chain 1: YNSGKLEEFVQGNLERECMEEKCSFEEAREVFENTERTTEFWKQYVDGDQCESNPCLNGGSCKDDINSYECWCPFGFEGKNCELDVTCNIKNGRCEQFCKNSADNKVVCSCTEGYRLAENQKSCEPAVPFPCGRVSVSQTSKLTR
chain 2: VVGGEDAKPGQFPWQVVLNGKVDAFCGGSIVNEKWIVTAAHCVETGVKITVVAGEHNIEETEHTEQKRNVSRIIPHHNYNAAINKYNHDIALLELDEPLVLNSYVTPICIADKEYTNIFLKFGSGYVSGWGRVFHKGYSALVLQYLRVPLVDRATCLESTKFTIYNNMFCAGFHEGGRDSCQGDSGGPHVTEVEGTSFLTGIISWGEECAMKGKYGIYTKVSRYVNWIKNKTKLT
B11: FIXa-R318Y/R338E/T343R/N346Y/R403E/E410N (protein)
chain 1: YNSGKLEEFVQGNLERECMEEKCSFEEAREVFENTERTTEFWKQYVDGDQCESNPCLNGGSCKDDINSYECWCPFGFEGKNCELDVTCNIKNGRCEQFCKNSADNKVVCSCTEGYRLAENQKSCEPAVPFPCGRVSVSQTSKLTR
chain 2: VVGGEDAKPGQFPWQVVLNGKVDAFCGGSIVNEKWIVTAAHCVETGVKITVVAGEHNIEETEHTEQKRNVIRIIPHHNYNAAINKYNHDIALLELDEPLVLNSYVTPICIADKEYTNIFLKFGSGYVSGWGRVFHKGYSALVLQYLRVPLVDRATCLESTKFRIYYNMFCAGFHEGGRDSCQGDSGGPHVTEVEGTSFLTGIISWGEECAMKGKYGIYTKVSEYVNWIKNKTKLT
B12: FIXa-R318Y/R338E/N346Y/R403E/E410N (protein)
chain 1: YNSGKLEEFVQGNLERECMEEKCSFEEAREVFENTERTTEFWKQYVDGDQCESNPCLNGGSCKDDINSYECWCPFGFEGKNCELDVTCNIKNGRCEQFCKNSADNKVVCSCTEGYRLAENQKSCEPAVPFPCGRVSVSQTSKLTR
chain 2: VVGGEDAKPGQFPWQVVLNGKVDAFCGGSIVNEKWIVTAAHCVETGVKITVVAGEHNIEETEHTEQKRNVIRIIPHHNYNAAINKYNHDIALLELDEPLVLNSYVTPICIADKEYTNIFLKFGSGYVSGWGRVFHKGYSALVLQYLRVPLVDRATCLESTKFTIYYNMFCAGFHEGGRDSCQGDSGGPHVTEVEGTSFLTGIISWGEECAMKGKYGIYTKVSEYVNWIKNKTKLT
B13: FIXa-R318Y/R338E/T343R/N346D/R403E/E410N (protein)
chain 1: YNSGKLEEFVQGNLERECMEEKCSFEEAREVFENTERTTEFWKQYVDGDQCESNPCLNGGSCKDDINSYECWCPFGFEGKNCELDVTCNIKNGRCEQFCKNSADNKVVCSCTEGYRLAENQKSCEPAVPFPCGRVSVSQTSKLTR
chain 2: VVGGEDAKPGQFPWQVVLNGKVDAFCGGSIVNEKWIVTAAHCVETGVKITVVAGEHNIEETEHTEQKRNVIRIIPHHNYNAAINKYNHDIALLELDEPLVLNSYVTPICIADKEYTNIFLKFGSGYVSGWGRVFHKGYSALVLQYLRVPLVDRATCLESTKFRIYDNMFCAGFHEGGRDSCQGDSGGPHVTEVEGTSFLTGIISWGEECAMKGKYGIYTKVSEYVNWIKNKTKLT
B14: FIXa-D104N/K106S/R318Y/R338E/T343R/R403E/E410N (protein)
chain 1: YNSGKLEEFVQGNLERECMEEKCSFEEAREVFENTERTTEFWKQYVDGDQCESNPCLNGGSCKDDINSYECWCPFGFEGKNCELDVTCNIKNGRCEQFCKNSANNSVVCSCTEGYRLAENQKSCEPAVPFPCGRVSVSQTSKLTR
chain 2: VVGGEDAKPGQFPWQVVLNGKVDAFCGGSIVNEKWIVTAAHCVETGVKITVVAGEHNIEETEHTEQKRNVIRIIPHHNYNAAINKYNHDIALLELDEPLVLNSYVTPICIADKEYTNIFLKFGSGYVSGWGRVFHKGYSALVLQYLRVPLVDRATCLESTKFRIYNNMFCAGFHEGGRDSCQGDSGGPHVTEVEGTSFLTGIISWGEECAMKGKYGIYTKVSEYVNWIKNKTKLT

For this data set, the target named is Factor X (FX), P00742.
Chain of Factor X (FX), P00742 (P00742 whole entry, looked up): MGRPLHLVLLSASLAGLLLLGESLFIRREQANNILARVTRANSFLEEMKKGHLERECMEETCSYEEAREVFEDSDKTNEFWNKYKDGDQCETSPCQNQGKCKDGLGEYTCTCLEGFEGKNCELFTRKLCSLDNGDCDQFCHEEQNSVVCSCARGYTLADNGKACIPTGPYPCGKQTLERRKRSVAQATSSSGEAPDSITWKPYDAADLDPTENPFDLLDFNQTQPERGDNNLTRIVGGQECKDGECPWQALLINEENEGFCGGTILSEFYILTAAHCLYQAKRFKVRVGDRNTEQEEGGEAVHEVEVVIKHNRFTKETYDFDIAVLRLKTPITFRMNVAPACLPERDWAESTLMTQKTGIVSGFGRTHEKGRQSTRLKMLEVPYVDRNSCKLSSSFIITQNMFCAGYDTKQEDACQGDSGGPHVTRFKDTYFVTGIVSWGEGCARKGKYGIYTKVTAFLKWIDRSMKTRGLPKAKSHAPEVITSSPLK
For B1, the kcat stood at 7.2 s⁻¹.

On to B2, for which the kcat was 4.5 s⁻¹.

With B3, the kcat of FX activation by FIXa (Xase complex with FVIIIa, PC/PS vesicles, Ca2+) was 7.8 s⁻¹.

On to B4, for which the kcat stood at 5.8 s⁻¹.

For the protein B5, the kcat stood at 6.2 s⁻¹.

Consider B6, for which the kcat came to 5.2 s⁻¹.

Take B7: the kcat is 3.8 s⁻¹.

For the protein B8, the kcat of FX activation by FIXa (Xase complex with FVIIIa, PC/PS vesicles, Ca2+) stood at 6.1 s⁻¹.

Turning to B9, the kcat amounted to 6.9 s⁻¹.

B10: the kcat turned out to be 6.4 s⁻¹.

B11: the kcat of FX activation by FIXa (Xase complex with FVIIIa, PC/PS vesicles, Ca2+) was determined as 4.6 s⁻¹.

Turning to B12, the kcat of FX activation by FIXa (Xase complex with FVIIIa, PC/PS vesicles, Ca2+) is 3.4 s⁻¹.

Turning to B13, the kcat of FX activation by FIXa (Xase complex with FVIIIa, PC/PS vesicles, Ca2+) turned out to be 5.4 s⁻¹.

Turning to B14, the kcat of FX activation by FIXa (Xase complex with FVIIIa, PC/PS vesicles, Ca2+) amounted to 5.7 s⁻¹.
